Experimental data as given in patent US20230212288A1 (published 2023).

Columns and labels:
[1] = biological target: T1, human CD3 receptor complex (human, UniProt P07766 23-207; P09693 23-182; P04234 22-171); experiment: flow cytometry on PBMCs of donor alpha; competition of titrated BSAB with 100 nM biotin-conjugated BSAB, PE-streptavidin detection
T1 construct: whole, on cells; also called native CD3; CD3 endogenous protein
Method: (§1) The blood was diluted with the same volume of the phosphate buffered saline (ECO-Servis, Cat. No. B-60201), layered above Ficoll density gradient (ρ=1.077 g/cm³) (“Pan-Eco”, Cat. No. P052) and centrifuged at 800 g and 20±2° C. for 30 minutes. PBMCs were collected at the phase boundary and washed twice with an isotonic phosphate buffered saline. A cell deposit was re-suspended in 15 mL of the DMEM/F12 medium (Sigma, Cat. No. D8900-10L) with 10% fetal bovine serum (GE Healthcare, Cat. No. SV30160) and incubated in a cultural vial (SPL Life Sciences Co, Cat. No. 70075) for attaching monocytes at 37±2° C. for 4 hours. Upon incubation, unattached cells were collected, a cell suspension was centrifuged, a cell deposit was re-suspended in the FACS buffer with a 1:100 Fc Blook solution (BD Pharmingen™, Cat. No. 564220) for inhibiting non-specific binding of Fc-receptors exposed on B-cell membranes. The prepared PBMC suspension with the cell concentration of 4*10⁶/mL was introduced by 50 μL (2*10⁵ cells per well) into a 96-well plate with a V-shaped bottom (Corning Inc, Cat. No. 3894).
(§2) Then a solution of biotin-conjugated BSAB with the concentration of 300 nM was prepared and introduced into wells with cells by 50 μL (preparation final concentration being 100 nM). […] Cell fluorescence intensity in the PE-channel was measured with the use of the Canto II cytometer. […]

[2] = biological target: T1, human CD3 receptor complex; experiment: cell-based or functional assay
[3] = biological target: T1, human CD3 receptor complex; experiment: flow cytometry on HUT78 cells (CD3-positive), FITC anti-human IgG detection
Method: (§3) Cell suspensions of CD19-positive cell lines (NALM6 (ATCC® CRL-3273™), Toledo (ATCC® CRL-2631™), Namalwa (ATCC® CRL-1432™), Daudi (ATCC® CCL-213™), Ramos (RA 1) (ATCC® CRL-1596™), Raji (ATCC® CCL-86™)) and CD3-positive cell lines (HuT78 (ATCC® TIB-161™), CCRF-CEM (ATCC® CCL-119™), Jurkat (ATCC® TIB-152™)) with the concentration of 2*10⁶ cells/mL were introduced by 30 μL into a 96-well plate with a V-shaped bottom (Corning Inc, Cat. No. 3894). […] When the incubation was over, the cells were twice washed with the FACS buffer and deposited by centrifuging at 1000 rpM and (4±2°) C. 30 μL of a solution of FITC-tagged antibodies directed against human IgG (Donkey F(ab)₂ Anti-Human IgG, Abcam, Cat. No. Ab102437) diluted in the 1:200 ratio were added into each well to the deposited cells, and incubated on ice in the dark for 30 minutes, followed by triple washing with the FACS buffer. Then the cells were fixed by re-suspending the cell deposit in each well in 150 μL of the FIX-buffer (phosphate buffered saline with 1%-solution of formalin). Cell fluorescence intensity in the FITC-channel was measured with the use of the Canto II cytometer.

[4] = biological target: T1, human CD3 receptor complex; experiment: flow cytometry on Jurkat cells (CD3-positive), FITC anti-human IgG detection
Method: as §3

[5] = biological target: T1, human CD3 receptor complex; experiment: flow cytometry on PBMCs of donor; competition of titrated BSAB with 100 nM biotin-conjugated BSAB, PE-streptavidin detection
Method: as §1, §2

[6] = biological target: T1, human CD3 receptor complex; experiment: flow cytometry on CCRF-CEM cells (CD3-positive), FITC anti-human IgG detection
Method: as §3

[7] = biological target: T1, human CD3 receptor complex; experiment: cell-based or functional assay; remark: listed apart in the source
[8] = biological target: T1, human CD3 receptor complex; experiment: flow cytometry on PBMCs of donor beta; competition of titrated BSAB with 100 nM biotin-conjugated BSAB, PE-streptavidin detection
Method: as §1, §2

T1 sequence (P07766 23-207, chain 1 of 3): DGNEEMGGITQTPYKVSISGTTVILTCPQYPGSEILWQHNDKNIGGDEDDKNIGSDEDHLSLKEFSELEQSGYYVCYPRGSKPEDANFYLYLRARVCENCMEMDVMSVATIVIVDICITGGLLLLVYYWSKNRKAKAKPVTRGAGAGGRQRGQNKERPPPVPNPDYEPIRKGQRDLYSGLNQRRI
T1 sequence (P09693 23-182, chain 2 of 3): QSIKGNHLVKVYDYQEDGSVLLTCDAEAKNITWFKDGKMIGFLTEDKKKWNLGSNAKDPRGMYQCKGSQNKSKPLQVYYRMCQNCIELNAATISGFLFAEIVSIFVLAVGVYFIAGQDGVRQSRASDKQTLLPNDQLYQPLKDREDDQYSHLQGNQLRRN
T1 sequence (P04234 22-171, chain 3 of 3): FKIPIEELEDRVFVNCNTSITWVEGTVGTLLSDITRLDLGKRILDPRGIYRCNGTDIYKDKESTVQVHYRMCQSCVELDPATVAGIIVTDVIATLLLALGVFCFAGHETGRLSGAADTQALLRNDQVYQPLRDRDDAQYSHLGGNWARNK

IC50 [1]: 52.1 nM | Activity (EC50 for activation of Jurkat line cells, pM) [2]: 2.2 pM | EC50 [3]: 1.2 nM | EC50 [4]: 0.37 nM | IC50 [5]: 62.3 nM | EC50 [6]: 0.4 nM | EC50 of chemiluminescence signal, Raji cells with Jurkat-Luc-NFAT reporter cells [7]: 0.0023 nM | IC50 [8]: 66.5 nM
B1: 309_02_A08 BSAB clone (bispecific antibody)
chain: DIQLTQTPASLAVSLGQRATISCKASQSVDYDGDSYLNWYQQIPGQPPKLLIYDASNLVSGIPPRFSGSGSGTDFTLNIHPVEKVDAATYHCQQSTEDPWTFGGGTKLEIKGGSGGAMAQVQLVQSGAEVKKPGASVKVSCKASGYTFTGYYMHWVRQAPGQGLEWMGIINPSGGSTSYAQKFQGRVTMTRDTSTSTVYMELSSLRSEDTAVYYCARTGKNYYYYGMDAWGQGTTVTVSSGGGGSGGGGSGGGASNFMLTQPHSVSESPGKTVTISCTRSSGSIARNYVQWYQQRPGSSPTTVIYEDNQRPSGVPDRFSASIDSSSNSASLTISGLQTEDEADYYCQSYDTSNHVVFGGGTKLTVLGQPAAAGGGGSQVQLQQSGAELVRPGSSVKISCKASGYAFSSYWMNWVKQRPGQGLEWIGQIWPGDGDTNYNGKFKGKATLTADESSSTAYMQLSSLASEDSAVYFCARRETTTVGRYYYAMDYWGQGTSVTVSSASAAVECPPCPAPPVAGPSVFLFPPKPKDTLMISRTPEVTCVVVDVSHEDPEVQFNWYVDGVEVHNAKTKPREEQFNSTFRVVSVLTVVHQDWLNGKEYKCKVSNKGLPAPIEKTISKTKGQPREPQVYTLPPSREEMTKNQVSLTCLVKGFYPSDIAVEWESNGQPENNYKTTPPMLDSDGSFFLYSKLTVDKSRWQQGNVFSCSVMHEALHNHYTQKSLSLSPGK
notes: described order VL CD3-VH CD19-VL CD19-VH CD3 with hinge and IgG2 Fc; the tie is not explicit; also called BSAB preparation
